The text below walks through data of patent US20040038340.

The target of series [1] is T1, P-Ser-HPr(His)6 from B. subtilis, P08877.
T1 chain: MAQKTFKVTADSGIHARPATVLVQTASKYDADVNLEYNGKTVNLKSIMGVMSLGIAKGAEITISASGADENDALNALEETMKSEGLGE

Series [2] addresses T2, HPr(His)6 from B. subtilis, P08877.
T2 chain: T1 chain

B1: His-tagged L. casei HprK (protein)
chain: MADSVTVRQLVKATKLEVYSGEEYLDQRQVVLSDISRPGLELTGYFNYYPHERIQLFGRTEISFARNMSSEERLLILKRMATEDTPAFLVSRGLEAPAEMITAATAAHIPVLGSRLPTTRLSSLITEYLDSQLAERRSMHGVLVDIYGLGVLITGDSGVGKSETALELVQRGHRLIADDRVDVYQQDEQTIVGAAPPILSHLLEIRGLGIIDVMNLFGAGAVREDTTISLIVHLENWTPDKTFDRLGSGEQTQLIFDVPVPKITVPVKVGRNLAIIIEVAAMNFRAKSMGYDATKTFEKNLNHLIEHNEETDQNSSGDK
As for B1, in series [1], the “P-Ser-HPr phosphatase activity (non-denaturing gel)” value is on record as “HprK of L. casei was indeed found to be bifunctional”. Further, the “HPr kinase activity (ATP-dependent HPr phosphorylation, non-denaturing gel)” value in series [2] was “HprK of L. casei was indeed found to be bifunctional”.
